Patent publication US20020147326A1 (GlaxoSmithKline, published 2002)

Experiments:
CTLA4-Ig [1] = target: T1, CTLA4-Ig (human, UniProt P16410 36-161); assay: isothermal titration calorimetry, in solution, 37° C.
T1 construct: also called CTLA4-Fc; not shown: human IgG1 heavy chain Fc region (hinge, CH2, CH3) of vector COSFcLink

CTLA4-Ig [2] = target: T1, CTLA4-Ig; assay: isothermal titration calorimetry, in solution, 44° C.
[3] = target: T2, human CD28 expressed on the cell surface (human, UniProt P10747 19-220); assay: flow cytometry on PCD28.1.s2.1 cells expressing human CD28
T2 construct: whole, on cells; also called CD28 positive cells; PCD28.1.s2.1 cells
Experimental: Non-adherent CD28 expressing cells (PCD28.1.s2.1) were used for this assay format. […] All incubations were carried out on ice. […] After washing twice in binding buffer, bound fusion proteins were detected with a 1:2000 dilution of a goat anti-human polyclonal antibody labeled with FITC (Flourescein isothiocyanate, Southern Biotech).

CTLA4-Ig [4] = target: T1, CTLA4-Ig; assay: isothermal titration calorimetry, Kd at 37° C., measured at 37° C.
CTLA4-Ig [5] = target: T1, CTLA4-Ig; assay: isothermal titration calorimetry at 44° C., Kd corrected to 37° C. by the van't Hoff equation

T1 sequence (P16410 other isoform, or with tags, fused parts or gaps): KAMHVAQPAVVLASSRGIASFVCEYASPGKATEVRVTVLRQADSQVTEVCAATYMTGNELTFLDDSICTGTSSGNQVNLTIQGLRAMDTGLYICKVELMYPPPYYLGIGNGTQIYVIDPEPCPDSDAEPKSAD

- Kd (CTLA4-Ig [1]): 38 nM
- Molar Ratio (CTLA4-Ig per construct) (CTLA4-Ig [1]): 0.8
- ΔH (CTLA4-Ig [1]): -33 kcal/mol
- Kd (CTLA4-Ig [2]): 71 nM
- Molar Ratio (CTLA4-Ig per construct) (CTLA4-Ig [2]): 0.79
- ΔH (CTLA4-Ig [2]): -34 kcal/mol
- binding result [3]: no binding
- Kd (CTLA4-Ig [4]): 40 nM
- Kd (CTLA4-Ig [5]): 22 nM
B1: CD86-Ig (Fc fusion)
chain: APLKIQAYFNETADLPCQFANSQNQSLSELVVFWQDQENLVLNEVYLGKEKFDSVHSKYMGRTSFDSDSWTLRLHNLQIKDKGLYQCIIHHKKPTGMIRIHQMNSELSVLANFSQPEIVPISNITENVYINLTCSSIHGYPEPKKMSVLLRTKNSTIEYDGIMQKSQDNVTELYDVSISLSVSFPDVTSNMTIFCILETDKTRLLSSPFSIELEDPQPPPDHEPKSADKTHTCPPCP
notes: Mature N-terminus LKIQ-, junction PPPDHepksa; also called B7.2-Ig; monomeric CD86-Ig; not shown: human IgG1 heavy chain Fc region (hinge, CH2, CH3) of vector COSFcLink
